Measured values: US20210077576A1
Values belong to the molecule of their own block, whether it stands above or below them.

How the values were obtained:
[1] = molecular target: monkey integrins on CV-1 and RF/6A cells; assay: flow cytometry on CV-1 (monkey) cells, bound protein detected with an antibody against the Fc domain; cell of the drawn KD table, column CV-1 [KD table]
[2] = molecular target: monkey integrins on CV-1 and RF/6A cells; assay: flow cytometry on RF/6A (monkey) cells, bound protein detected with an antibody against the Fc domain; cell of the drawn KD table, column RF/6A [KD table]
[3] = molecular target: monkey integrins on CV-1 and RF/6A cells; assay: flow cytometry on CV-1 (monkey) cells, detection with an antibody against the Fc domain [panel CV-1 (monkey]
[4] = molecular target: rat integrins on Rat2 cells (rat fibroblasts); assay: flow cytometry on Rat2 (rat fibroblast) cells, detection with an antibody against the Fc domain; cell of the drawn KD table, column Rat2 [KD table]
[5] = molecular target: rabbit integrins on SIRC cells (rabbit corneal cells); assay: flow cytometry on SIRC (rabbit cornea) cells, detection with an antibody against the Fc domain; cell of the drawn KD table, column SIRC [KD table]
[6] = molecular target: human integrins on U87MG cells (human tumor cells); assay: flow cytometry on U87MG (human) cells, bound protein detected with an antibody against the Fc domain; cell of the drawn KD table, column U87MG [KD table]

Kd [1]: 1.5 nM
Kd [2]: 0.5 nM
EC50 (read off the curve) [3]: 2 nM
Kd [4]: 1.01 nM
Kd [5]: 0.288 nM
Molecule: NOD201 (2.5F peptide fused to human IgG1 Fc; no linker) (Fc fusion)

Kd [6]: 0.7 nM
B1: NOD201M (NOD201 with murine Fc domain; no linker) (Fc fusion)
chain: GCPRPRGDNPPLTCSQDSDCLAGCVCGPNGFCGEPRVPITQNPCPPLKECPPCAAPDLLGGPSVFIFPPKIKDVLMISLSPMVTCVVVDVSEDDPDVQISWFVNNVEVHTAQTQTHREDYNSTLRVVSALPIQHQDWMSGKEFKCKVNNRALPSPIEKTISKPRGPVRAPQVYVLPPPAEEMTKKEFSLTCMITGFLPAEIAVDWTSNGRTEQNYKNTATVLDSDGSYFMYSKLRVQKSTWERGSLFACSVVHEGLHNHLTTKTISRSLG
